Assay results: publication PMC10180154

Columns and labels:
[1] = molecular target: T1, LRP6 (recombinant human LRP-6, Fc chimera) (Homo sapiens) (UniProt O75581); experiment: CE-LIF (NECEEM); conditions: CE-LIF: incubation pH 8.0, 0.155% glutathione, 0.395% Tris-HCl; running buffer 50 mM borate pH 7.6, 20 kV, 25 C (CE-SELEX conditions). SPR: PBST pH 7.4, 0.05% …
T1 sequence: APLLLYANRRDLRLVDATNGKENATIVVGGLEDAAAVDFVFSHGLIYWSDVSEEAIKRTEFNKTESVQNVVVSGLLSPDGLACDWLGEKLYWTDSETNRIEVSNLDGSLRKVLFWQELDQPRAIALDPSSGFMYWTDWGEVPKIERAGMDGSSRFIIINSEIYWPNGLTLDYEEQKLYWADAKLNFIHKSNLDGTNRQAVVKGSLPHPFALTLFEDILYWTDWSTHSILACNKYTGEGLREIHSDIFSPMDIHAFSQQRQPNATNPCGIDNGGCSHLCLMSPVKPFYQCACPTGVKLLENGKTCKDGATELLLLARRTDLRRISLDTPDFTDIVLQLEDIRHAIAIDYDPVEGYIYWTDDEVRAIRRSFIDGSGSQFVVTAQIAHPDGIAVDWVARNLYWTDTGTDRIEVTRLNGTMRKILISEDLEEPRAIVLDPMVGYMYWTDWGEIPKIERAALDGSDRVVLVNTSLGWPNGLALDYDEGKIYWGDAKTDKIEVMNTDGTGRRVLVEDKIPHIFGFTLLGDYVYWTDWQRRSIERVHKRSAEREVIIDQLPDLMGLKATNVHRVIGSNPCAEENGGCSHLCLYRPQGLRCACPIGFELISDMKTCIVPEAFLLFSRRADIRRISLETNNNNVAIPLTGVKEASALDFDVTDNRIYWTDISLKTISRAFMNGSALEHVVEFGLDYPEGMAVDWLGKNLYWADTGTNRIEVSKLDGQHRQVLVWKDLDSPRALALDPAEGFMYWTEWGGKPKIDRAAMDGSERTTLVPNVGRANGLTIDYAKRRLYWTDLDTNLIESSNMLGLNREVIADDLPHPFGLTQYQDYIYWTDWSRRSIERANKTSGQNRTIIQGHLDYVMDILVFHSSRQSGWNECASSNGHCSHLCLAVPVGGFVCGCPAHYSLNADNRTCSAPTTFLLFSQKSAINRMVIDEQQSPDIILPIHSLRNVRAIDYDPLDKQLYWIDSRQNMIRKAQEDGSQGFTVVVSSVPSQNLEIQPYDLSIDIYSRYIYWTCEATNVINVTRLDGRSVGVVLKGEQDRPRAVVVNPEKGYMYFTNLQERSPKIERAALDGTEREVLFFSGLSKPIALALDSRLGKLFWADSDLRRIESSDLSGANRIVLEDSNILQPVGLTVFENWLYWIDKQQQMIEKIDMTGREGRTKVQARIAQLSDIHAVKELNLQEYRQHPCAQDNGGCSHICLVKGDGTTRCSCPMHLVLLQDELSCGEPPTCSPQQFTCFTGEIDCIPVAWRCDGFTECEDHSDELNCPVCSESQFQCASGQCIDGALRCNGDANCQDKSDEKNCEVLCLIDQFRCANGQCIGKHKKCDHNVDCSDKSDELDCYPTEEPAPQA

[2] = molecular target: T1, LRP6 (recombinant human LRP-6, Fc chimera) (Homo sapiens); experiment: SPR; conditions: CE-LIF: incubation pH 8.0, 0.155% glutathione, 0.395% Tris-HCl; running buffer 50 mM borate pH 7.6, 20 kV, 25 C (CE-SELEX conditions). SPR: PBST pH 7.4, 0.05% …

Sequence | Kd [1] [nM] | Kd [2] [nM]
AGCAGCACAGAGGTCAGATGCCGCAGGCAGCTGCCATTAGTCTCTATCCGTGACGGTATGCCTATGCGTGCTACCGTGAA [AptLRP6-A1] | 118 | 13.4
AGCAGCACAGAGGTCAGATGCGACTTGCCTATCGGCATGACACAATCTTTTGGAGCGTAACCTATGCGTGCTACCGTGAA [AptLRP6-A4] | 661 | 51
AGCAGCACAGAGGTCAGATGGCAGCTAAGCAGGCGGCTCACAAAACCATTCGCATGCGGCCCTATGCGTGCTACCGTGAA [AptLRP6-A3] | 105 | 25.7
AGCAGCACAGAGGTCAGATGGCCACATTAGTCTCACCACTACCTGCGTACCTACCGCCGCCCTATGCGTGCTACCGTGAA [AptLRP6-A2] | 1280 | 173
